This note sets out measurements from publication PMC3393671.

This experiment has as its target ROP5 of T. gondii strain RH-YFP (isoforms not told apart), F2YGR7. The experiment is described as follows: pull-down (quantitated Western blot). The note with it: chain shown with the change; 25 µg protein/100 µl 1:1 bead suspension; RH-YFP strain T. gondii lysates; 3E2 antibody (anti-ROP5); GST signal subtracted; parent: est. 100; read off a plot. A general note: Immunoblotting shows a protein as a band on a membrane.

Chain of ROP5 of T. gondii strain RH-YFP (isoforms not told apart), F2YGR7 (F2YGR7 25-549): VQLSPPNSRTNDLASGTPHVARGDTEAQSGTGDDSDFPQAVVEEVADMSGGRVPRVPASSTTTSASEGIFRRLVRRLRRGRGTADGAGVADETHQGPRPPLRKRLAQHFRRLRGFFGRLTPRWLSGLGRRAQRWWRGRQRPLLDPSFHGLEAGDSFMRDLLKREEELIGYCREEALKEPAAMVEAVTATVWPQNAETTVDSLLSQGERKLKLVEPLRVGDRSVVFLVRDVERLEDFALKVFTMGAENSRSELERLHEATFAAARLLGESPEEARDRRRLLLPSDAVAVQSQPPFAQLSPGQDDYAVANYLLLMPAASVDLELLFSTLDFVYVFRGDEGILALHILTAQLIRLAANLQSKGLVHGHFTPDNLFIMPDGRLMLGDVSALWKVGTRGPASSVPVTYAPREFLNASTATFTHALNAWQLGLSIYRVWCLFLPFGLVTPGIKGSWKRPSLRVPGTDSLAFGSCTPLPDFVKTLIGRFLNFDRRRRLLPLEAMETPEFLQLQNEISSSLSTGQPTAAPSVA

B1: GST-Irga6, Q9QZ85 T102D (protein)
chain: MGQLFSSPKSDENNDLPSSFTGYFKKFNTGRKIISQEILNLIELRMRKGNIQLTNSAISDALKEIDSSVLNVAVTGETGSGKSSFINTLRGIGNEEEGAAKDGVVEVTMERHPYKHPNIPNVVFWDLPGIGSTNFPPNTYLEKMKFYEYDFFIIISATRFKKNDIDIAKAISMMKKEFYFVRTKVDSDITNEADGKPQTFDKEKVLQDIRLNCVNTFRENGIAEPPIFLLSNKNVCHYDFPVLMDKLISDLPIYKRHNFMVSLPNITDSVIEKKRQFLKQRIWLEGFAADLVNIIPSLTFLLDSDLETLKKSMKFYRTVFGVDETSLQRLARDWEIEVDQVEAMIKSPAVFKPTDEETIQERLSRYIQEFCLANGYLLPKNSFLKEIFYLKYYFLDMVTEDAKTLLKEICL
As to B1, the percent of parent (% of wild-type intensity) was 110.

B2: GST-Irga6, Q9QZ85 E142R (protein)
chain: MGQLFSSPKSDENNDLPSSFTGYFKKFNTGRKIISQEILNLIELRMRKGNIQLTNSAISDALKEIDSSVLNVAVTGETGSGKSSFINTLRGIGNEEEGAAKTGVVEVTMERHPYKHPNIPNVVFWDLPGIGSTNFPPNTYLRKMKFYEYDFFIIISATRFKKNDIDIAKAISMMKKEFYFVRTKVDSDITNEADGKPQTFDKEKVLQDIRLNCVNTFRENGIAEPPIFLLSNKNVCHYDFPVLMDKLISDLPIYKRHNFMVSLPNITDSVIEKKRQFLKQRIWLEGFAADLVNIIPSLTFLLDSDLETLKKSMKFYRTVFGVDETSLQRLARDWEIEVDQVEAMIKSPAVFKPTDEETIQERLSRYIQEFCLANGYLLPKNSFLKEIFYLKYYFLDMVTEDAKTLLKEICL
Turning to B2, the percent of parent (% of wild-type intensity) came out at 73.

B3: GST-Irga6, Q9QZ85 T108D (protein)
chain: MGQLFSSPKSDENNDLPSSFTGYFKKFNTGRKIISQEILNLIELRMRKGNIQLTNSAISDALKEIDSSVLNVAVTGETGSGKSSFINTLRGIGNEEEGAAKTGVVEVDMERHPYKHPNIPNVVFWDLPGIGSTNFPPNTYLEKMKFYEYDFFIIISATRFKKNDIDIAKAISMMKKEFYFVRTKVDSDITNEADGKPQTFDKEKVLQDIRLNCVNTFRENGIAEPPIFLLSNKNVCHYDFPVLMDKLISDLPIYKRHNFMVSLPNITDSVIEKKRQFLKQRIWLEGFAADLVNIIPSLTFLLDSDLETLKKSMKFYRTVFGVDETSLQRLARDWEIEVDQVEAMIKSPAVFKPTDEETIQERLSRYIQEFCLANGYLLPKNSFLKEIFYLKYYFLDMVTEDAKTLLKEICL
On to B3, for which the percent of parent (% of wild-type intensity) was found to be 77.

B4: GST-Irga6, Q9QZ85 G103R (protein)
chain: MGQLFSSPKSDENNDLPSSFTGYFKKFNTGRKIISQEILNLIELRMRKGNIQLTNSAISDALKEIDSSVLNVAVTGETGSGKSSFINTLRGIGNEEEGAAKTRVVEVTMERHPYKHPNIPNVVFWDLPGIGSTNFPPNTYLEKMKFYEYDFFIIISATRFKKNDIDIAKAISMMKKEFYFVRTKVDSDITNEADGKPQTFDKEKVLQDIRLNCVNTFRENGIAEPPIFLLSNKNVCHYDFPVLMDKLISDLPIYKRHNFMVSLPNITDSVIEKKRQFLKQRIWLEGFAADLVNIIPSLTFLLDSDLETLKKSMKFYRTVFGVDETSLQRLARDWEIEVDQVEAMIKSPAVFKPTDEETIQERLSRYIQEFCLANGYLLPKNSFLKEIFYLKYYFLDMVTEDAKTLLKEICL
For the molecule B4, the percent of parent (% of wild-type intensity) came out at 43.

B5: GST-Irga6, Q9QZ85 G195R (protein)
chain: MGQLFSSPKSDENNDLPSSFTGYFKKFNTGRKIISQEILNLIELRMRKGNIQLTNSAISDALKEIDSSVLNVAVTGETGSGKSSFINTLRGIGNEEEGAAKTGVVEVTMERHPYKHPNIPNVVFWDLPGIGSTNFPPNTYLEKMKFYEYDFFIIISATRFKKNDIDIAKAISMMKKEFYFVRTKVDSDITNEADRKPQTFDKEKVLQDIRLNCVNTFRENGIAEPPIFLLSNKNVCHYDFPVLMDKLISDLPIYKRHNFMVSLPNITDSVIEKKRQFLKQRIWLEGFAADLVNIIPSLTFLLDSDLETLKKSMKFYRTVFGVDETSLQRLARDWEIEVDQVEAMIKSPAVFKPTDEETIQERLSRYIQEFCLANGYLLPKNSFLKEIFYLKYYFLDMVTEDAKTLLKEICL
For the molecule B5, the percent of parent (% of wild-type intensity) is 6.5.

B6: GST-Irga6, Q9QZ85 K196D (protein)
chain: MGQLFSSPKSDENNDLPSSFTGYFKKFNTGRKIISQEILNLIELRMRKGNIQLTNSAISDALKEIDSSVLNVAVTGETGSGKSSFINTLRGIGNEEEGAAKTGVVEVTMERHPYKHPNIPNVVFWDLPGIGSTNFPPNTYLEKMKFYEYDFFIIISATRFKKNDIDIAKAISMMKKEFYFVRTKVDSDITNEADGDPQTFDKEKVLQDIRLNCVNTFRENGIAEPPIFLLSNKNVCHYDFPVLMDKLISDLPIYKRHNFMVSLPNITDSVIEKKRQFLKQRIWLEGFAADLVNIIPSLTFLLDSDLETLKKSMKFYRTVFGVDETSLQRLARDWEIEVDQVEAMIKSPAVFKPTDEETIQERLSRYIQEFCLANGYLLPKNSFLKEIFYLKYYFLDMVTEDAKTLLKEICL
For B6, the percent of parent (% of wild-type intensity) worked out at 1.8.

B7: GST-Irga6, Q9QZ85 N220R (protein)
chain: MGQLFSSPKSDENNDLPSSFTGYFKKFNTGRKIISQEILNLIELRMRKGNIQLTNSAISDALKEIDSSVLNVAVTGETGSGKSSFINTLRGIGNEEEGAAKTGVVEVTMERHPYKHPNIPNVVFWDLPGIGSTNFPPNTYLEKMKFYEYDFFIIISATRFKKNDIDIAKAISMMKKEFYFVRTKVDSDITNEADGKPQTFDKEKVLQDIRLNCVNTFRERGIAEPPIFLLSNKNVCHYDFPVLMDKLISDLPIYKRHNFMVSLPNITDSVIEKKRQFLKQRIWLEGFAADLVNIIPSLTFLLDSDLETLKKSMKFYRTVFGVDETSLQRLARDWEIEVDQVEAMIKSPAVFKPTDEETIQERLSRYIQEFCLANGYLLPKNSFLKEIFYLKYYFLDMVTEDAKTLLKEICL
Regarding B7, the percent of parent (% of wild-type intensity) was 20.

B8: GST-Irga6, Q9QZ85 K169E (protein)
chain: MGQLFSSPKSDENNDLPSSFTGYFKKFNTGRKIISQEILNLIELRMRKGNIQLTNSAISDALKEIDSSVLNVAVTGETGSGKSSFINTLRGIGNEEEGAAKTGVVEVTMERHPYKHPNIPNVVFWDLPGIGSTNFPPNTYLEKMKFYEYDFFIIISATRFKKNDIDIAEAISMMKKEFYFVRTKVDSDITNEADGKPQTFDKEKVLQDIRLNCVNTFRENGIAEPPIFLLSNKNVCHYDFPVLMDKLISDLPIYKRHNFMVSLPNITDSVIEKKRQFLKQRIWLEGFAADLVNIIPSLTFLLDSDLETLKKSMKFYRTVFGVDETSLQRLARDWEIEVDQVEAMIKSPAVFKPTDEETIQERLSRYIQEFCLANGYLLPKNSFLKEIFYLKYYFLDMVTEDAKTLLKEICL
In the case of B8, the percent of parent (% of wild-type intensity) was 22.

B9: GST-Irga6, Q9QZ85 C213R (protein)
chain: MGQLFSSPKSDENNDLPSSFTGYFKKFNTGRKIISQEILNLIELRMRKGNIQLTNSAISDALKEIDSSVLNVAVTGETGSGKSSFINTLRGIGNEEEGAAKTGVVEVTMERHPYKHPNIPNVVFWDLPGIGSTNFPPNTYLEKMKFYEYDFFIIISATRFKKNDIDIAKAISMMKKEFYFVRTKVDSDITNEADGKPQTFDKEKVLQDIRLNRVNTFRENGIAEPPIFLLSNKNVCHYDFPVLMDKLISDLPIYKRHNFMVSLPNITDSVIEKKRQFLKQRIWLEGFAADLVNIIPSLTFLLDSDLETLKKSMKFYRTVFGVDETSLQRLARDWEIEVDQVEAMIKSPAVFKPTDEETIQERLSRYIQEFCLANGYLLPKNSFLKEIFYLKYYFLDMVTEDAKTLLKEICL
With B9, the percent of parent (% of wild-type intensity) is 3.3.

B10: GST-Irga6, Q9QZ85 Q198E (protein)
chain: MGQLFSSPKSDENNDLPSSFTGYFKKFNTGRKIISQEILNLIELRMRKGNIQLTNSAISDALKEIDSSVLNVAVTGETGSGKSSFINTLRGIGNEEEGAAKTGVVEVTMERHPYKHPNIPNVVFWDLPGIGSTNFPPNTYLEKMKFYEYDFFIIISATRFKKNDIDIAKAISMMKKEFYFVRTKVDSDITNEADGKPETFDKEKVLQDIRLNCVNTFRENGIAEPPIFLLSNKNVCHYDFPVLMDKLISDLPIYKRHNFMVSLPNITDSVIEKKRQFLKQRIWLEGFAADLVNIIPSLTFLLDSDLETLKKSMKFYRTVFGVDETSLQRLARDWEIEVDQVEAMIKSPAVFKPTDEETIQERLSRYIQEFCLANGYLLPKNSFLKEIFYLKYYFLDMVTEDAKTLLKEICL
Regarding B10, the percent of parent (% of wild-type intensity) was 32.

B11: GST-Irga6, Q9QZ85 V205R (protein)
chain: MGQLFSSPKSDENNDLPSSFTGYFKKFNTGRKIISQEILNLIELRMRKGNIQLTNSAISDALKEIDSSVLNVAVTGETGSGKSSFINTLRGIGNEEEGAAKTGVVEVTMERHPYKHPNIPNVVFWDLPGIGSTNFPPNTYLEKMKFYEYDFFIIISATRFKKNDIDIAKAISMMKKEFYFVRTKVDSDITNEADGKPQTFDKEKRLQDIRLNCVNTFRENGIAEPPIFLLSNKNVCHYDFPVLMDKLISDLPIYKRHNFMVSLPNITDSVIEKKRQFLKQRIWLEGFAADLVNIIPSLTFLLDSDLETLKKSMKFYRTVFGVDETSLQRLARDWEIEVDQVEAMIKSPAVFKPTDEETIQERLSRYIQEFCLANGYLLPKNSFLKEIFYLKYYFLDMVTEDAKTLLKEICL
Consider B11, for which the percent of parent (% of wild-type intensity) came to 10.

B12: GST-Irga6, Q9QZ85 N191R (protein)
chain: MGQLFSSPKSDENNDLPSSFTGYFKKFNTGRKIISQEILNLIELRMRKGNIQLTNSAISDALKEIDSSVLNVAVTGETGSGKSSFINTLRGIGNEEEGAAKTGVVEVTMERHPYKHPNIPNVVFWDLPGIGSTNFPPNTYLEKMKFYEYDFFIIISATRFKKNDIDIAKAISMMKKEFYFVRTKVDSDITREADGKPQTFDKEKVLQDIRLNCVNTFRENGIAEPPIFLLSNKNVCHYDFPVLMDKLISDLPIYKRHNFMVSLPNITDSVIEKKRQFLKQRIWLEGFAADLVNIIPSLTFLLDSDLETLKKSMKFYRTVFGVDETSLQRLARDWEIEVDQVEAMIKSPAVFKPTDEETIQERLSRYIQEFCLANGYLLPKNSFLKEIFYLKYYFLDMVTEDAKTLLKEICL
As to B12, the percent of parent (% of wild-type intensity) came out at 30.
